This note sets out measurements from patent US20250388684A1 (published 2025).

In general, EC50 refers to the concentration needed to bring the measured effect to its halfway point.

The target of test [1] is T1, human CCR8 (C-C chemokine receptor type 8) (human, UniProt P51685 1-355). Put plainly: FACS cell binding; Control.
For test [2], the target named is T1, human CCR8 (C-C chemokine receptor type …). Put plainly: FACS cell binding; human plasma 37°C 7 Day.
Test [3] shares this target. In words: FACS cell binding; human plasma 37°C 14 Day.

T1 sequence (P51685 whole entry): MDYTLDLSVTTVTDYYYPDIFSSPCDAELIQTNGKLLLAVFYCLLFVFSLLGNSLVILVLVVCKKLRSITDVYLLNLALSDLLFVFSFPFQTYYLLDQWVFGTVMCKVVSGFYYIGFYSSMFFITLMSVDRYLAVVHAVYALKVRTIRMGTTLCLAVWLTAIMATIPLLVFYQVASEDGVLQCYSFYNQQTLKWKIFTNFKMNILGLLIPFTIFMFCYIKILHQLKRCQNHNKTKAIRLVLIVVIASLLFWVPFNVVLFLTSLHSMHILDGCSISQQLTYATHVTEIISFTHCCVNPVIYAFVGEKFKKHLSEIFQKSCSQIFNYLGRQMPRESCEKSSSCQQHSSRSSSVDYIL

B1: 13F3H6-hz-eADCC (13F3H6-hz with ADCC-enhanced IgG1 Fc) (antibody)
heavy: EVQLVESGGGLVQPGESLRLSCAASGFTFNAYAMNWVRQAPGQGLEWVARIRTKSNNYATYYADSVKGRFTISRDDSKNTLYLEMNSLRAEDTAVYYCVRHKKVREGYAMDYWGQGTLVTVSSASTKGPSVFPLAPSSKSTSGGTAALGCLVKDYFPEPVTVSWNSGALTSGVHTFPAVLQSSGLYSLSSVVTVPSSSLGTQTYICNVNHKPSNTKVDKKVEPKSCDKTHTCPPCPAPELVGGPSVFLLPPKPKDTLMISRTPEVTCVVVDVSHEDPEVKFNWYVDGVEVHNAKTKPPEEQYNSTLRVVSVLTVLHQDWLNGKEYKCKVSNKALPAPIEKTISKAKGQPREPQVYTLPPSREEMTKNQVSLTCLVKGFYPSDIAVEWESNGQPENNYKTTPLVLDSDGSFFLYSKLTVDKSRWQQGNVFSCSVMHEALHNHYTQKSLSLSPGK
light: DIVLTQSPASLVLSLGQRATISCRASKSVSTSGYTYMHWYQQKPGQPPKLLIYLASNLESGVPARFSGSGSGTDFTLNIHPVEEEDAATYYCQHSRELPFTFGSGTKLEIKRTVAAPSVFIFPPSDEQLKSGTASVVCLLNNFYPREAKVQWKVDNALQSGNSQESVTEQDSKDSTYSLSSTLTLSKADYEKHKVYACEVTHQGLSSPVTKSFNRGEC
Turning to B1, the values for the EC50 in test [1], in test [2] and in test [3] were 0.035 µg/mL, 0.0425 µg/mL and 0.039 µg/mL, respectively.
